Experimental findings from publication PMC5397179 (2017) are described below.

Sequences and labels used below:
B1: Biotinylated full length PcrA (Geobacillus stearothermophilus), wild type [modified: biotin; biotin] [Geobacillus stearothermophilus] / DNA pol I, Bacillus subtilis [B. subtilis 168 (endogenous in the cell extract)] (parent complex)
chain 1: MNFLSEQLLAHLNKEQQEAVRTTEGPLLIMAGAGSGKTRVLTHRIAYLMAEKHVAPWNILAITFTNKAAREMRERVQSLLGGAAEDVWISTFHSMCVRILRRDIDRIGINRNFSILDPTDQLSVMKTILKEKNIDPKKFEPRTILGTISAAKNELLPPEQFAKRASTYYEKVVSDVYQEYQQRLLRNHSLDFDDLIMTTIQLFDRVPDVLHYYQYKFQYIHIDEYQDTNRAQYTLVKKLAERFQNICAVGDADQSIYRWRGADIQNILSFERDYPNAKVILLEQNYRSTKRILQAANEVIEHNVNRKPKRIWTENPEGKPILYYEAMNEADEAQFVAGRIREAVERGERRYRDFAVLYRTNAQSRVMEEMLLKANIPYQIVGGLKFYDRKEIKDILAYLRVIANPDDDLSLLRIINVPKRGIGASTIDKLVRYAADHELSLFEALGELEMIGLGAKAAGALAAFRSQLEQWTQLQEYVSVTELVEEVLDKSGYREMLKAERTIEAQSRLENLDEFLSVTKHFENVSDDKSLIAFLTDLALISDLDELDGTEQAAEGDAVMLMTLHAAKGLEFPVVFLIGMEEGIFPHNRSLEDDDEMEEERRLAYVGITRAEEELVLTSAQMRTLFGNIQMDPPSRFLNEIPAHLLETASRRQAGASRPAVSRPQASGAVGSWKVGDRANHRKWGIGTVVSVRGGGDDQELDIAFPSPIGIKRLLAKFAPIEKV
chain 2: MTERKKLVLVDGNSLAYRAFFALPLLSNDKGVHTNAVYGFAMILMKMLEDEKPTHMLVAFDAGKTTFRHGTFKEYKGGRQKTPPELSEQMPFIRELLDAYQISRYELEQYEADDIIGTLAKSAEKDGFEVKVFSGDKDLTQLATDKTTVAITRKGITDVEFYTPEHVKEKYGLTPEQIIDMKGLMGDSSDNIPGVPGVGEKTAIKLLKQFDSVEKLLESIDEVSGKKLKEKLEEFKDQALMSKELATIMTDAPIEVSVSGLEYQGFNREQVIAIFKDLGFNTLLERLGEDSAEAEQDQSLEDINVKTVTDVTSDILVSPSAFVVEQIGDNYHEEPILGFSIVNETGAYFIPKDIAVESEVFKEWVENDEQKKWVFDSKRAVVALRWQGIELKGAEFDTLLAAYIINPGNSYDDVASVAKDYGLHIVSSDESVYGKGAKRAVPSEDVLSEHLGRKALAIQSLREKLVQELENNDQLELFEELEMPLALILGEMESTGVKVDVDRLKRMGEELGAKLKEYEEKIHEIAGEPFNINSPKQLGVILFEKIGLPVVKKTKTGYSTSADVLEKLADKHDIVDYILQYRQIGKLQSTYIEGLLKVTRPDSHKVHTRFNQALTQTGRLSSTDPNLQNIPIRLEEGRKIRQAFVPSEKDWLIFAADYSQIELRVLAHISKDENLIEAFTNDMDIHTKTAMDVFHVAKDEVTSAMRRQAKAVNFGIVYGISDYGLSQNLGITRKEAGAFIDRYLESFQGVKAYMEDSVQEAKQKGYVTTLMHRRRYIPELTSRNFNIRSFAERTAMNTPIQGSAADIIKKAMIDMAAKLKEKQLKARLLLQVHDELIFEAPKEEIEILEKLVPEVMEHALALDVPLKVDFASGPSWYDAK
B2: Biotinylated full length PcrA (Geobacillus stearothermophilus), wild type [modified: biotin; biotin] [Geobacillus stearothermophilus] / LigA (NAD+-dependent DNA ligase), Bacillus subtilis [B. subtilis 168 (endogenous in the cell extract)] (parent complex)
chain 1: B1 chain 1
chain 2: MDKETAKQRAEELRRTINKYSYEYYTLDEPSVPDAEYDRLMQELIAIEEEHPDLRTPDSPTQRVGGAVLEAFQKVTHGTPMLSLGNAFNADDLRDFDRRVRQSVGDDVAYNVELKIDGLAVSLRYEDGYFVRGATRGDGTTGEDITENLKTIRNIPLKMNRELSIEVRGEAYMPKRSFEALNEERIKNEEEPFANPRNAAAGSLRQLDPKIAAKRNLDIFVYSIAELDEMGVETQSQGLDFLDELGFKTNQERKKCGSIEEVITLIDELQAKRADLPYEIDGIVIKVDSLDQQEELGFTAKSPRWAIAYKFPAEEVVTKLLDIELNVGRTGVITPTAILEPVKVAGTTVSRASLHNEDLIKEKDIRILDKVVVKKAGDIIPEVVNVLVDQRTGEEKEFSMPTECPECGSELVRIEGEVALRCINPECPAQIREGLIHFVSRNAMNIDGLGERVITQLFEENLVRNVADLYKLTKERVIQLERMGEKSTENLISSIQKSKENSLERLLFGLGIRFIGSKAAKTLAMHFESLENLKKASKEELLAVDEIGEKMADAVITYFHKEEMLELLNELQELGVNTLYKGPKKVKAEDSDSYFAGKTIVLTGKLEELSRNEAKAQIEALGGKLTGSVSKNTDLVIAGEAAGSKLTKAQELNIEVWNEEQLMGELKK
B3: Biotinylated full length PcrA (Geobacillus stearothermophilus), wild type [modified: biotin; biotin] [Geobacillus stearothermophilus] / UvrB, Bacillus subtilis [B. subtilis 168 (endogenous in the cell extract)] (parent complex)
chain 1: B1 chain 1
chain 2: MKDRFELVSKYQPQGDQPKAIEKLVKGIQEGKKHQTLLGATGTGKTFTVSNLIKEVNKPTLVIAHNKTLAGQLYSEFKEFFPNNAVEYFVSYYDYYQPEAYVPQTDTFIEKDASINDEIDKLRHSATSALFERRDVIIIASVSCIYGLGSPEEYREMVVSLRTEMEIERNELLRKLVDIQYARNDIDFQRGTFRVRGDVVEIFPASRDEHCVRVEFFGDEIERIREVDALTGEILGDRDHVAIFPASHFVTRAEKMEKAIQNIEKELEEQLKVMHENGKLLEAQRLEQRTRYDLEMMREMGFCSGIENYSRHLTLRPPGSTPYTLLDYFPDDFMIVVDESHVTIPQVRGMFNGDQARKQVLVDHGFRLPSALDNRPLRFEEFEKHMHNIVYVSATPGPYEIEHTDEMVEQIIRPTGLLDPLIDVRPIEGQIDDLIGEIQARIERNERVLVTTLTKKMSEDLTDYLKEIGIKVNYLHSEIKTLERIEIIRDLRLGKYDVLVGINLLREGLDIPEVSLVAILDADKEGFLRSERSLIQTIGRAARNAEGRVIMYADKITKSMEIAINETKRRREQQERFNEEHGITPKTINKEIRDVIRATVAAEDKAEYKTKAAPKLSKMTKKERQKVVEQMEHEMKEAAKALDFERAAELRDLLLELKAEG

The variants in one test derive from B1. As to the kind of experiment: pulldown quantified by mass spectrometry; parent: 97; read off a plot.
Turning to chain 1 L714A, the screen value was roughly 70.

For chain 1 K712A, the screen value was roughly 49.

The variants in a further test derive from B2. Put plainly: pulldown quantified by mass spectrometry; parent: 26; read off a plot.
As to chain 1 K712A, the screen value was roughly 21.

For the variant chain 1 L714A, the screen value is roughly 25.

Another test covers variants of B3. Put plainly: pulldown quantified by mass spectrometry; parent: 12; read off a plot.
Regarding chain 1 L714A, the screen value was roughly 2.3.

In the case of chain 1 K712A, the screen value was roughly 0.
